Assay results: patent US20200206304A1, “METHODS AND COMPOSITIONS FOR EFFICIENT DELIVERY THROUGH MULTIPLE BIO BARRIERS” (Cedars-Sinai Medical Center, priority 2017, published 2020)

How the values were obtained:
[1] = comparison, Israel et al., 2019; cited from earlier work
[2] = Zeta potential measurements (Zetasizer Nano ZS90); assay type: physicochemical; settings: in PBS; voltage 150 mV
Description: Zeta Potential Measurements: Synthesized conjugates were characterized with respect to their ζ potential using a Zetasizer Nano ZS90 (Malvern Instruments, Malvern, UK). Ten microliter aliquots of nanoconjugate samples were diluted in 0.99 mL PBS, and the voltage applied was 150 mV. Data represent the mean of three measurements±their standard deviation.

brain cells = settings: cortex
Description: For the particulate fluorescence analysis, images were converted to binary images, and then 5 ROIs 20*20 μm^2 were drawn per image. The area of each particle on the ROI was measured using the Image) particle analysis tool, where each particle was measured separately. Sizes were then summarized, sorted, and further analyzed using Minitab18 software (Minitab, Inc, State College, Pa., USA). Particulate areas observed between different conditions were compared via a one-way ANOVA combined with post-hoc Tukey tests to test differences between each experimental group.
A more reliable method to separate the particulate from the cellular fluorescence was reasoned to be by adjusting the levels of the image and converting it to a binary image, allowing the detection of only particulates eliminating interference of the diffused background. FIGS. 29A-29D illustrate intracellular fluorescence of mini nanodrugs.
Each ROI was converted to binary (black and white) image and the area and number of particles were quantified. 3 images per brain area were tested for 3 mice per group.
The particle content (example of ROI in FIG. 29A) then was measured. The average size of the particulate fluorescence is a proxy to estimate the intracellular load of fluorescent nanoconjugates following their injections. An example of such an analysis is shown in FIG. 29A: the yellow squares indicate regions of interest that were used to quantify particulate fluorescence. FIGS. 29B-29C summarize the average size of the intracellular fluorescence particles in the cortex ([…]), midbrain (FIG. 29C), and the hippocampus (FIG. 29C).

glioblastoma GL261 = settings: mouse, in vivo
[3] = Dynamic light scattering, hydrodynamic diameter and PDI; assay type: physicochemical; settings: DLS in PBS, conjugates without attached rhodamine
Description: Dynamic Light Scattering: Synthesized conjugates were characterized using a Zetasizer Nano ZS90 (Malvern Instruments, Malvern, UK). Ten microliter aliquots of nanoconjugate samples were diluted in 0.99 mL PBS and were measured 3 times using a clear cuvette. Data represent the mean of three measurements and polydispersity index.

[4] = test system: blood-brain barrier (BBB); settings: dose 8×
Description: AD-Mouse models: 6-8 month old […] (B6.Cg-Tg (APPswe/PS1ΔE9) 85Dbo/J hemizygous) mice were obtained from Jackson Laboratories. Mouse maintenance and experimental procedures followed the guidelines established by the Cedars Sinai Institutional Animal Care and Use Committee (IACUC Protocol #7416). Three to four mice of each sex were used for each experiment. Nanoconjugates were dissolved freshly in PBS (pH 7.4) prior to each experiment and injected intravenously (i.v.) into the lateral tail vein. […] Mice were anesthetized with isoflurane beforehand and their tails were briefly warmed to facilitate injections. The drug injection volume was kept constant at 150 μL. After each injection, mice were promptly returned to their cages. Brains were collected and preserved in OTC for immunostaining.
The brains were harvested and a 14 μm thick slices which were fixed and stained with DAPI to envision the nuclei
A comparison with normal brain was beneficial for understanding of the development of Alzheimer's disease.

[5] = test system: LRP-1 transcytosis pathway; settings: 70-fold molar excess of P/LLL (40%)
Aβ plaque = target: T1, Aβ plaque (Homo sapiens, UniProt P05067); test: Percentage of total plaques labeled by mini nanodrugs in AD mice; assay type: in vivo,  (B6.Cg-Tg (APPswe/PS1ΔE9) 85Dbo/J hemizygous) mice; settings: injected dose 8X (0.55 μmol/Kg)
T1 construct: tissue Jackson Laboratories; host or cells: brain of 6-8 month old APPswe/PS1ΔE9 transgenic mice, plaques labelled in vivo after iv injection and counterstained on sections
Description: Slides were air dries and fixed using freshly diluted 2% PFA for 5 minutes. The PFA was washed 3 timed with PBS, and brains were covered with 70% EtOH for 5 minutes before washing with dH2O for 2 minutes. 1× Amylo-Glo (Biosenses, #TR-300-AG 100×, diluted with PBS) was then added for 10 minutes. The slides were then washed with PBS (5 minutes) and dH2O (15 seconds) and mounted (Fluoromount-G, No DAPI, Invitrogen), and stored at 4° C. prior to imaging.
Brains were collected and preserved in OTC for immunostaining.

T1 sequence (P05067 672-713 limits assumed): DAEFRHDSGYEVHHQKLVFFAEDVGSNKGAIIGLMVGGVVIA

For PMLA/LLL/AP2/rhodamine [P/LLL/AP2], the half-life in blood [1] is listed as 1.28 h, the ζ potential [2] is listed as −11.6 mV and the “average area per particle” value (brain cells) is listed as 0.42±0.72 μm^2. For the same substance, the “serum concentration at 120 minutes” value (0.068 μmol/kg injection) was 1.15e+08 µM, the “serum drug concentration at 120 minutes post injection” value (0.068 μmol/kg injection) was 115 µM and the serum half-life (i.v. 0.068 μmol/kg, single exponential decay fit) was 1.28 h. For the same substance, the “increase in tumor selectivity with the increase of the dose” value (glioblastoma GL261) was 2.4 fold, the “Hydrodynamic diameter (volume mode)” value [3] was 4.45 nm and the PDI [3] was “(0.39)”. The PDI ([3]; listed as P/LLL/AP-2) was 0.39, the “fluorescence intensity in AD brain” value [4] was 10 units and the “competition by unlabeled P/LLL (40%)” value [5] was “did not exhibit competition”. The “Percentage of total plaques labeled by the reagents” value (Aβ plaque) was 1.23%.
